Assay results: the supplement of paper PMC9170038

Test system: MS2 coat protein
Test: apparent KD of MS2 coat protein; designed switch direction (-1 OFF switch, 1 ON switch): -1; higher = weaker reporter binding
Procedure, shortened: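 The apparent KD reported per design is the median over clusters of curve fits to normalised cluster fluorescence. The RNA switches were transcribed on Illumina chips by stalled E. coli RNA polymerase. SNAP-549-labelled MS2 coat protein was titrated from 0.7 or 1.5 nM, doubling up to 3 µM, in Tris-HCl pH 7.5 buffer containing KCl, MgCl2, BSA, DTT, tRNA and Tween-20, with no input, 200 uM small-molecule ligand, or an oligonucleotide input.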

[1] = input ligand: microRNA oligo, concentration not stated
[2] = Eterna round: R95, input ligand: FMN 200 uM
[3] = Eterna round: R95, input ligand: microRNA oligo, concentration not stated
[4] = Eterna round: R95, input ligand: none

Sequence	apparent KD of MS2 coat protein (input ligand: FMN 200 uM)	apparent KD of MS2 coat protein [1]	apparent KD of MS2 coat protein (input ligand: none)	apparent KD of MS2 coat protein [2]	apparent KD of MS2 coat protein [3]	apparent KD of MS2 coat protein [4]
CUAGCGGAUGUAGGAUAUCGGACUGUUUCAGUCUGAGAAGGACAUGAGGAUCACCCAUGUAUAGCUACGUGAGUAGCUCGCUAG [JL ENG1 3.95] (Eterna round: R96, puzzle: Exclusion NG 1)	38.1 nM	15.3 nM	22.8 nM	–	–	–
AGUAGAUCUACGCUUGCGUGGAUCUGCUAUGCAGGUGUUACAUGAGGAUCACCCAUGUCCUCAUUUGUUCGUCUUAU [JL turnoff v2 99.15] (puzzle: Sensor v3, turn-off variant 2)	–	–	–	135 nM	111 nM	185 nM
AUAUACGGAGGAUAUACUUGAGGAUCACCCAAGUGGAAUCCCGUUUGGGCGGUAAAUAGUAGAAGGCCGACCCA [jl-ex3-4.42 ViennaUCT mod] (Eterna round: R97, puzzle: Exclusion 3)	17.7 nM	–	16.3 nM	–	–	–
CCGGAAAUACAGGAUAUAGGAGUAAAUAUACUCCUAGAAGGGUAUACAUGAGGAUCACCCAUGUGUCCUACCGG [Fiskers Ex 6 - 67] (puzzle: Exclusion 6)	–	–	–	–	23.4 nM	–
CAGUACUGAGGAUAUACAUGAGGAUCACCCAUGUGUUCCAGCUAGGAAACUAGCAAAAGUAGAAGGCAGUUCUG [salish99_ex3_r3_099x] (puzzle: Exclusion 3)	–	–	–	–	19.3 nM	–
AGAAAGCAAGGAUAUACAAAGAAACGACCGAAAGAAAAGAAACAUGAGGAUCACCCAUGUAGAAGGUGCAAGAA [JR_Exclu2_Sub031] (puzzle: Exclusion 2)	–	–	–	19 nM	12.8 nM	17.7 nM
GCUGGUGUGCAGGAUAUUUAAUUGCAAAUAAAUAAAGAAGGGCAUACAUGAGGAUCACCCAUGUCGUCGUUGCG [Eternabot (L1) Solution 98] (Eterna round: R97, puzzle: Exclusion 6)	39.2 nM	–	32.7 nM	–	–	–
AAUAAGUGAGGAUAUACGUCUGGACCCGGGAGGGAAAUAAAACAUGAGGAUCACCCAUGUAGAAGGCACAAUAA [Excls2-III] (puzzle: Exclusion 2)	–	–	–	17.5 nM	13.5 nM	16.9 nM
GCUCUCUCUCUGUCUCUCUACAUGAGGAUCACCCAUGUGUCUCGCUCGCUCUCUCUCUCUCUUUCUCUCUCUCUCUU [Default title] (Eterna round: R97, puzzle: Sensor, turn-off variant 1)	104 nM	–	135 nM	–	–	–
UCAUGUCCUGAGGAUAUGUAGCGGAUAAACGCAACAGAAGGCAGGACAUGAGGAUCACCCAUGUGUGCCUUCCA [Exclusion 6 Mod of JL of Mod of Letion by ViennaUCT] (Eterna round: R97, puzzle: Exclusion 6)	8.14 nM	–	113 nM	–	–	–
ACCUAACAUGAGGAUCACCCAUGUCAGGAUAUCCGGCCUAUGGAAACAUAGGAAGAACGGAGAAGGGACAGAGG [ChP 04-04-2015 #9] (puzzle: Exclusion 1)	–	–	–	69.5 nM	35 nM	43.1 nM
GCUUCGGCAGGAUAUACAAGCUUCGGCUGAAAAGUUGAAGUACAUGAGGAUCACCCAUGUAGAAGGGUUGAAGU [-25.7, -24.2 kcal, A 32% 3 bis, 3 bis] (Eterna round: R97, puzzle: Exclusion 2)	45.6 nM	–	60.1 nM	–	–	–
ACAUGUAAUGCAGGAUAUUUGACACAUGAGGAUCACCCAUGUGACCAGAGGAAUUGCUAUGAGUCGAAGAAGGGUAUGUACAUG [Ex NG2 #55] (Eterna round: R96, puzzle: Exclusion NG 2)	56.2 nM	44.7 nM	42.9 nM	–	–	–
UUAAAGGCAGGAUAUACAUUUUUUUUAUUAUCCUCAUUAUUACAUGAGGAUCACCCAUGUAGAAGGGCCAAAUU [Mat - Exclusion 2 - Mod of Hog - D85] (Eterna round: R96, puzzle: Exclusion 2)	312 nM	187 nM	357 nM	–	–	–
GUCAUGAUUGUGAGGAUAUUUCAUAGAUAGAUGUUAGAGAAGGUACAUGAGGAUCACCCAUGUGUGAUCAGACA [Brourd's EX4 #74] (Eterna round: R97, puzzle: Brourd's mod of Exclusion 4)	336 nM	–	478 nM	–	–	–
UUUUUAUAUGAAGGAUAUACUUAACAUGAGGAUCACCCAUGUGGUGUUGUGAGUGAGUGAGUUUAGUAGAAGGUCAAUUAUAUU [JMF's solution 13] (Eterna round: R96, puzzle: Exclusion NG 2)	574 nM	316 nM	350 nM	–	–	–
CUUGUGUGAGGAUAUGAAUUGCCUGGUCAUCCAGGCUCCUGUCAGAAGGCACAUGAGGAUCACCCAUGUGGGCA [Biatire] (Eterna round: R97, puzzle: Exclusion 4)	120 nM	–	882 nM	–	–	–

Sequence	apparent KD of MS2 coat protein (input ligand: FMN 200 uM)	apparent KD of MS2 coat protein [1]	apparent KD of MS2 coat protein (input ligand: none)	apparent KD of MS2 coat protein [2]	apparent KD of MS2 coat protein [3]	apparent KD of MS2 coat protein [4]
ACGCAUUGCCAAAGGUAGUGCGUUACAUGAGGAUCACCCAUGUAGGAUAUGGUAGGCAAAGCUUACCAGAAGGACAUGAUAAUU [Mat - Exclusion NG 3 - Mod of JL - D6] (Eterna round: R96, puzzle: Exclusion NG 3)	227 nM	44.8 nM	51.2 nM	–	–	–
GAUUGAGAGCAGGAUAUAUUCCUGAUGUAUGAAGUAGAAGGGCUCACAUGAGGAUCACCCAUGUGAUCCUGAAU [JL Dibri mod 17 mod] (Eterna round: R97, puzzle: Exclusion 6)	15.3 nM	–	14.3 nM	–	–	–
GUCGUGUUAGGAUAUGCAUGUGGACGAUGUUCUCCGCCGGUGUAGAAGGAACAUGAGGAUCACCCAUGUGCCUA [Eternabot (L1) Solution 79] (Eterna round: R97, puzzle: Exclusion 4)	45.6 nM	–	52.5 nM	–	–	–
UUGUUUUUUGAGGAUAUGCGACGUUUUUUCGUCGUAGAAGGCGAUACAUGAGGAUCACCCAUGUUUAUGGGCAU [LRO-Ex6-14] (puzzle: Exclusion 6)	–	–	–	–	122 nM	–
GUCAGCUCGUCAGGAUAUACAUCACUGCUUCGGCAGUGUAUUAAGAUCACAUGAGGAUCACCCAUGUAGAAGGGACGAGCUGAU [ENG2/2-B2] (Eterna round: R96, puzzle: Exclusion NG 2)	322 nM	18.4 nM	25.8 nM	–	–	–
CUGCCGAGAGGAUAUACUAAGCGAAGAGCCUCAUAAAAGUUACAUGAGGAUCACCCAUGUAGAAGGCUUGGGAG [Eternabot (Original) Solution 38] (Eterna round: R97, puzzle: Exclusion 2)	104 nM	–	54.4 nM	–	–	–
GUCGCUAGAGGAUAUACAAUGGUAUAUGAUCCUAGUGACAUACAUGAGGAUCACCCAUGUAGAAGGCUAGUAAU [Exclusion 2 - 7] (puzzle: Exclusion 2)	–	–	–	–	24.8 nM	–
GGCUAGUCAGGAUAUACGAACAUGUCAAAAGACGUGAAGGGACAUGAGGAUCACCCAUGUAGAAGGGACUAGCA [salish99_ex2_r3_001] (puzzle: Exclusion 2)	–	–	–	–	23.5 nM	–
GCACGGAGUGUAGGAUAUUAGUGCGAUUAGCACUGAGAAGGACAUGAGGAUCACCCAUGUGCUACCUCAAUUAGCCUUCCGUGC [Eli exng1 - 035] (Eterna round: R96, puzzle: Exclusion NG 1)	21.8 nM	16.5 nM	19.7 nM	–	–	–
UAGGUGUGAGGAUAUGGUAAAGAAAAGAUGAUGAAAGAACUCCAGAAGGCACAUGAGGAUCACCCAUGUAGAUG [Mat - Exclusion 4 - Mod of JL - D32] (puzzle: Exclusion 4)	–	–	–	–	28.7 nM	–
AUAUAUAGUGUGAGGAUAUGCUGGUCCUUGGAUCAGCAGAAGGCACAUGAGGAUCACCCAUGUAGUUUAUUUUA [Mat - Exclusion 4 - JL Mod - D1] (puzzle: Brourd's mod of Exclusion 4)	–	–	–	–	29.3 nM	–
GUAAAGGUAGGAUAUACGAAGAAAAAGGGUAGAAGAAGAACACAUGAGGAUCACCCAUGUAGAAGGACCAAAUG [Mat - Exclusion 2 - Mod of my Tesla design - D4] (puzzle: Exclusion 2)	–	–	–	63.9 nM	24.8 nM	28.5 nM
UUUUUAUAUGAAGGAUAUACUUAACAUGAGGAUCACCCAUGUGGUGUUGUGAGUGAGUGAGUUUAGUAGAAGGUCAAGUACUUU [JMF's solution 37] (Eterna round: R96, puzzle: Exclusion NG 2)	614 nM	380 nM	574 nM	–	–	–
GUACUGAAGCUUUGCUUUAAUCGUACAUGAGGAUCACCCAUGUAGGAUAUGGUAGGCUUUGCUUACCAGAAGGACAGAGUGAUC [JL EXNG3 1.24] (Eterna round: R96, puzzle: Exclusion NG 3)	217 nM	124 nM	136 nM	–	–	–
GUGAAGAAGUUAGUGGCCUACAUGAGGAUCACCCAUGUGAGGGAAAUGUUGAGGCGAAAGUUGUGUGCUCGUCUGUA [JR_SV3TOV1_Sub040] (puzzle: Sensor v3, turn-off variant 1)	–	–	–	27.1 nM	52.1 nM	31.1 nM
AUCAGCUCGUCAGGAUAUACAUGCGUGCUUCGGCACGAAUUUAAGAUCACAUGAGGAUCACCCAUGUAGAAGGGACGAGCUGAU [ENG2/3-B3] (Eterna round: R96, puzzle: Exclusion NG 2)	1270 nM	498 nM	526 nM	–	–	–
GAAUAGGCAGGAUAUACAUGAGGAUCACCCAUGUGCCGGCGAAAGGUACGUUCGAAAGGUAGAAGGGCCUAAAC [ChP 13.04.2015 #7] (puzzle: Exclusion 3)	–	–	–	151 nM	43.8 nM	48.9 nM
